Assay results published in paper PMC8463877, “The binding of the small heat-shock protein αB-crystallin to fibrils of α-synuclein is driven by entropic forces” (Proceedings of the National Academy of Sciences of the …, 2021).

Key:
Settings in all cases: both partners purified
[1] = target: T1, α-synuclein amyloid fibrils (unlabeled) (UniProt P37840 1-140); experiment: microfluidic diffusional sizing; equilibrium titration, 1 to 100 μM α-syn fibrils with 1 μM αB-c, 25 °C, 3 d, PBS pH 7.2, 0.1 % NaN3; noncooperative single-site model, binding-site ratio 1:5.4 fixed; apparent
[2] = target: T1, α-synuclein amyloid fibrils (unlabeled); experiment: microfluidic diffusional sizing; kinetics in free solution, 1 μM GFP-αB-c with 10 μM α-syn fibrils, 7 °C, PBS pH 7.2, 0.1 % NaN3; koff calculated from the association kinetics
[3] = target: T1, α-synuclein amyloid fibrils (unlabeled); experiment: microfluidic diffusional sizing; kinetics in free solution, 1 μM GFP-αB-c with 10 μM α-syn fibrils, 25 °C, PBS pH 7.2, 0.1 % NaN3; aliquots over 50 to 150 h; second-order rate equation; apparent constants, KD from koff/kon, per monomer equivalent of αB-c
[4] = target: T1, α-synuclein amyloid fibrils (unlabeled); experiment: microfluidic diffusional sizing; global analysis of the kinetics at 7, 10, 17, 20, 25, 30 and 37 °C: binding-site concentration fitted globally; nonlinear van't Hoff analysis of KD,app, reference temperature 310 K (37 °C value not used)
[5] = target: T1, α-synuclein amyloid fibrils (unlabeled); experiment: microfluidic diffusional sizing; kinetics in free solution, 1 μM GFP-αB-c with 10 μM α-syn fibrils, 20 °C, PBS pH 7.2, 0.1 % NaN3; apparent constants, KD from koff/kon
[6] = target: T1, α-synuclein amyloid fibrils (unlabeled); experiment: microfluidic diffusional sizing; dissociation of bound αB-c followed in a saturated α-syn fibril solution at 7 °C

B1: GFP-labeled αB-crystallin (αB-c-TEV site-GFP-His tag) (natural protein)
chain: MDIAIHHPWIRRPFFPFHSPSRLFDQFFGEHLLESDLFPTSTSLSPFYLRPPSFLRAPSWFDTGLSEMRLEKDRFSVNLDVKHFSPEELKVKVLGDVIEVHGKHEERQDEHGFISREFHRKYRIPADVDPLTITSSLSSDGVLTVNGPRKQVSGPERTIPITREEKPAVTAAPKK
notes: αB-crystallin, small heat-shock protein; Arrangement as printed: αB-c-TEV site-GFP-His tag; a TEV site lies between αB-c and GFP; Present as a polydisperse ensemble of oligomers; concentrations are in monomer equivalents; also called αB-c-GFP; small heat-shock protein αB-crystallin; not shown: GFP, C-terminal, kept
- Kd [1]: 261 ± 76 nM
- koff [2]: 2.6e-05 s⁻¹
- Kd [3]: 373 ± 238 nM
- koff [3]: 2.7e-06 s⁻¹
- kon [3]: 7.1 ± 2.6 M⁻¹ s⁻¹
- dH [4]: 443 ± 107 kJ⋅mol^−1
- stoichiometry N [4]: 5.4 α-syn equivalents per αB-c equivalent
- Kd [5]: 4100 ± 1700 nM
- koff [6]: 5.6e-05 s⁻¹
